Measurements taken from US11020478B2, “Methods for modulating angiogenesis of cancers refractory to anti-VEGF treatment” (INIS BIOTECH LLC, priority 2013, dated 2021).

What was measured:
HUVEC migration = experiment: EC migration assay (HUVEC); format: cell-based, human
Method: (§1) Cells were incubated at 37° C. for periods ranging from 0 to 24 h and were visualized by phase-contrast microscopy. Capillary-like tubular structures were scored by counting the number of tubules (closed areas) per well in a phase-contrast microscope (Nikon E-100). For migration assays, ECs (4×10^4/well) transfected or not with specific siRNA were resuspended in M199 medium supplemented with 1% FCS. Cells were placed into the top chamber of the insert while the bottom well was filled with Gal1 or VEGF-A in the absence or presence of the above mentioned stimuli. After 24 hours, inserts were stained with crystal violet (Sigma) and analyzed in an inverted microscope. For each filter, 4 images were obtained and cells were counted with ImageJ software v1.46r (NIH). […] After 24 hours, cells were incubated in the presence of 0.8 μCi [^3H]-thymidine (NEN Dupont). Cells were then harvested and radioactivity was measured in a 1414 Liquid Scintillation Counter (Perkin Elmer). Tumor-associated ECs were identified by flow cytometry using Alexa Fluor 647-conjugated anti-CD34 (RAM34; eBioscience) and FITC-conjugated anti-CD45 (J33; Immunotech). Microvessel density (MVD) was determined by counting the number of CD31^+ microvessels present in 10 mm^2. Ten random 400× fields were counted.

B16-F0 tumor parenchyma = experiment: Adoptive transfer of CFSE-labeled T cells / fluorescent beads, influx to tumor and spleen; format: in vivo, mouse
Method: (§2) For intracellular cytokine staining, TDLN cells were made permeable with Perm2 solution (BD Biosciences) and were labeled with fluorescent-conjugated mAb anti-IFN-γ (XMG1.2; BD Biosciences), anti-IL-17 (TC11-18H10; BD Biosciences), anti-IL-10 (JESS-16E3; eBioscience), anti-CD8 (H35-17.2; eBioscience) and anti-CD4 (GK1.5; BD Biosciences). Cells were analyzed on a FACSCanto II flow cytometer (BD Biosciences). For adoptive transfer, splenic T cells (5×10^6) from tumor-bearing mice were labeled with CFSE (Molecular Probes) and injected through the tail vein into tumor-bearing recipient mice treated with F8.G7 mAb or isotype control. APC-fluorescent beads (7-10 μm; BD Biosciences) were injected as controls. CFSE^+ cells or APC^+ beads were analyzed after 24 h or 15 min respectively by flow cytometry in the tumor parenchyma and spleen.

VEGFR2 = experiment: Immunoblot of VEGFR2 phosphorylation in HUVEC; format: cell-based, human
Method: Cells were lysed and analyzed by the human […] RTK Signaling Antibody Array (Cell Signaling) following the manufacturer's directions. For co-immunoprecipitation, 500 μg lysates were incubated with 2 μg anti-VEGFR2 (55B11; Cell Signaling) Ab. The immunocomplexes were captured with protein G PLUS-Agarose (Santa Cruz) and processed for immunoblotting (according to methods described in Ilarregui et al., Nat. Immunol. 10, 981-99 (2009)). Blots were probed with anti-Erk1/2 (C14), anti-phospho-Erk1/2 (E4), anti-actin (I-19), anti-Gal3 (B2C10), anti-Gal4 (Q20), anti-Gal7 (H8) or anti-Gal8 (D18) Ab (all from Santa Cruz) or anti-Akt (9272), anti-phospho-Akt (9271 S), anti-VEGFR2 (55B11), anti-phospho-VEGFR2 (19A10) Ab (all from Cell Signaling) or a rabbit anti-Gal1 polyclonal IgG (1.5 μg/ml) (as described in Rubinstein et al., Cancer Cell 5:3, 241-51 (2004)).

[1] = system: LLC1 Lewis lung carcinoma; experiment: In vivo tumor model, LLC1; design: species or system mouse
Method: as §1, with “Tumor-associated ECs were identified by flow cytometry using Alexa Fluor 647-conjugated anti-CD34 (RAM34; eBioscience) and FITC-conjugated anti-CD45 (J33; Immunotech).” left out
Mice were anesthetized and intracardiacally perfused with PBS and 4% (w/v) paraformaldehyde and tissues were embedded in OCT. […] Pericyte maturation was assessed using Ab specific for α-SMA (1A4; Dako), desmin (D33; Dako), PDGFR-β (APB5; Biolegend) and RGS5 (HPA001821; Prestige Sigma). […]

HUVEC tube formation = experiment: Capillary-like tube formation on Matrigel (HUVEC); format: cell-based, human; details: HUVEC
Method: as §1

R1.1 T-cell lymphoma = experiment: In vivo tumor model, R1.1; design: species or system mouse
Method: as §1, with “counted. […]” for “counted.”

Gal1 = target: T1, Gal1 (Mus musculus, UniProt P16045); experiment: ELISA of Gal1 secretion by tumors inoculated in syngeneic mice; format: in vivo; details: B16-F0, LLC1 and R1.1 tumors, day 16
T1 construct: from tissue; host or cells: B16-F0, LLC1 and R1.1 tumours grown in syngeneic mice
T1 sequence (P16045 whole entry): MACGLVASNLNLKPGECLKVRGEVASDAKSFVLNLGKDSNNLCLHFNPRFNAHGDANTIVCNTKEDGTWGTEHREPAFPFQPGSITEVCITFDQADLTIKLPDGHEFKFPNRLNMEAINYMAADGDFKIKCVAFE
Method: (§3) Gal1 was determined using an in-house ELISA (according to the methods described in Croci et al., J. Exp. Med. 209:11, 1985-2000 (2012). The mouse IFN-γ (DY485), mouse IL-17 (DY421), mouse TGF-β1 (DY1679), mouse Gal3 (DY1179) and human VEGF-A (DY293B) ELISA sets were from R&D. The mouse IL-10 (555252) set was from BD Biosciences, the mouse bFGF (Ab100670) set was from Abcam, and the mouse Gal8 (SEA308Mu) set was from USCN Life Science. Optical densities were determined at 450-550 nm in a Multiskan MS microplate reader (Thermo Electron Corporation).
(§4) Wild-type or Gal1 knockdown B16-F0, LLC1 and R1.1 (2.5 or 5×10^5 cells) were subcutaneously inoculated into 6- to 8-week old WT, Mgat5^−/−, St6gal1^−/− or Rag1^−/− B6 mice. CT26 (5×10^5) cells were injected into syngeneic BALB/c mice. When tumors reached 100 mm^3, mice were inoculated intraperitoneally with anti-VEGF (B20-4.1.1; 5 or 10 mg/kg), anti-Gal1 (F8.G7; 5, 10 or 15 mg/kg) or isotype control mAb twice weekly. Axitinib (30 mg/kg; Sigma) was administered every two days by oral gavage. Mice were sacrificed when tumors reached a volume greater than 2.5 cm^3. Two weeks after tumor inoculation, TDLN cells (5×10^5/well) were re-stimulated ex vivo for 72 hours with lysates of B16-F0 or LLC1 cells and analyzed for proliferation and cytokine production (as described in Rubinstein et al., Cancer Cell 5:3, 241-51 (2004)).

TDLN cells = experiment: TDLN cell responses of tumor-bearing mice (ex vivo restimulation, ELISA, flow cytometry); format: in vivo, mouse
Method: as §3, §2
(§5) Mice were anesthetized and intracardiacally perfused with PBS and 4% (w/v) paraformaldehyde and tissues were embedded in OCT. To visualize the vasculature, mice were intravenously injected with FITC-conjugated Griffonia simplicifolia Lectin-1 (GLS-1B4; Vector) prior to heart perfusion and fixation. Pericyte maturation was assessed using Ab specific for α-SMA (1A4; Dako), desmin (D33; Dako), PDGFR-β (APB5; Biolegend) and RGS5 (HPA001821; Prestige Sigma). The fraction of pericyte coverage was calculated as the ratio of α-SMA area to the FITC-GLS-1B4 or CD31-stained area using a specific anti-CD31 Ab (Mec13.3; BD Biosciences). Hypoxia was detected after injection of pimonidazole hydrochloride for 30 min following immunostaining with Hypoxyprobe-1 plus kit (Natural Pharmacia). Tumor-infiltrating cells were analyzed using anti-CD8 (H35-17.2; e-Bioscience) and anti-F4/80 (BM8; eBioscience) mAb.
Wild-type or Gal1 knockdown B16-F0, LLC1 and R1.1 (2.5 or 5×10^5 cells) were subcutaneously inoculated into 6- to 8-week old WT, Mgat5^−/−, St6gal1^−/− or Rag1^−/− B6 mice. CT26 (5×10^5) cells were injected into syngeneic BALB/c mice. […] Two weeks after tumor inoculation, TDLN cells (5×10^5/well) were re-stimulated ex vivo for 72 hours with lysates of B16-F0 or LLC1 cells and analyzed for proliferation and cytokine production (as described in Rubinstein et al., Cancer Cell 5:3, 241-51 (2004)).

B16-F0 melanoma [2] = experiment: In vivo tumor model, B16-F0; design: species or system mouse; details: single administration of F8.G7 mAb, 10 mg/kg
B16-F0 melanoma [3] = experiment: In vivo tumor model, B16-F0; design: species or system mouse
Method: as §5, §4

[4] = system: other members of the galectin family; details: cited from earlier work
[5] = F8.G7 10 mg/kg combined with anti-VEGF mAb, day 7
[6] = single administration of F8.G7 mAb, 10 mg/kg

B1: F8.G7: mouse anti-Gal1 blocking (neutralizing) monoclonal antibody; hybridoma 8F4.F8.G7, ATCC deposit PTA-10535; vH SEQ ID NO: 6, vK SEQ ID NO: 11 (antibody, V domains shown)
VH: EVQLQQSVAEFVRPGASVRLSCTASGFNIKNTYIHWVRQRPEQGLEWIGKIDPANGNTKYVPEFQGKATMTADTSSNTVYLHLSSLTSEDTAIYYCVDGYYGWYFAVWGTGTTVTVSS
VL: QAVVTQESALTTSPGETVTLTCRSSTGAVTTSNYANWVQEKPDHLFTGLIGATNNRAPGVPARFSGSLIGDKAVLTITGAQTEDEAIYFCALWYRNHFIFGSGTKVTVL
modifications: Anti-human
In the case of B1, the “EC migration induced by Gal1” value (HUVEC migration) is reported as “specifically prevented”, the “T cells reaching tumor parenchyma” value (B16-F0 tumor parenchyma; CFSE-labeled T cells, vs control isotype) is reported as “greater number” and the “number of CFSE+ T cells in spleens” value (B16-F0 tumor parenchyma; vs control isotype) is reported as “no differences”. For the same molecule, the “access of fluorescently-labeled beads to the tumor parenchyma” value (B16-F0 tumor parenchyma; vs control-treated mice) was “increased access”, the “Gal1-induced VEGFR2 phosphorylation” value (VEGFR2) was “inhibited to levels comparable to those attained by MGAT5 silencing” and the “anti-VEGF resistance (tumor growth inhibition and reduced vascularization)” value [1, 5] was “successfully circumvented”. The “tumor growth and vascularization” value [1, 6] was “sustained inhibition of tumor growth and vascularization”, the “tube formation induced by Gal1” value (HUVEC tube formation) was “specifically prevented” and the “anti-VEGF resistance (tumor growth inhibition and reduced vascularization)” value (R1.1 T-cell lymphoma; [5]) was “successfully circumvented”. The “tumor growth and vascularization” value (R1.1 T-cell lymphoma; [6]) was “sustained inhibition of tumor growth and vascularization”, the “amounts of secreted Gal1” value (Gal1) was “dropped substantially” and the T-cell proliferation (TDLN cells; mice bearing B16-F0 tumors) was “stimulated”. The “tumor-specific IL-10 production” value (TDLN cells; mice bearing B16-F0 tumors) was “blunted”, the immunological phenotype (TDLN cells; mice inoculated with LLC1) was “confirmed” and the “number of TDLN and tumor-infiltrating IFN-γ-producing CD8+ T cells” value (TDLN cells; vs control-treated mice) was “dramatic increase”. The “tumor growth and vascularization” value (B16-F0 melanoma [2]) was “sustained inhibition of tumor growth and vascularization”, the “therapeutic benefit of anti-VEGF” value (B16-F0 melanoma [3]; F8.G7 10 mg/kg combined with anti-VEGF mAb) was “slightly enhanced” and the “remodeling of tumor vasculature” value (B16-F0 melanoma [3]; days 4-5 post treatment) was “substantial remodeling of the vasculature”. The “pericyte coverage of tumor vessels” value (B16-F0 melanoma [3]; days 4-5 post treatment, vs control mAb) was “greater coverage by pericytes”, the anti-tumor effect (B16-F0 melanoma [3]; immunodeficient B6.Rag1−/− mice) was “only a partial anti-tumor effect” and the “concentrations at which active” value (B16-F0 melanoma [3]; in vivo tumor models) was 5 to 10 mg/kg. The “tumor hypoxia (pimonidazole adducts)” value (B16-F0 melanoma [3]; mouse, in vivo) was “markedly alleviated”, the “tumor growth at different doses” value (B16-F0 melanoma [3]; treated when tumors reached 100 mm^3) was “dose-dependent effect” and the “Desmin expression in pericytes” value (B16-F0 melanoma [3]; vs control-treated tumors) was “no significant variations”. The “PDGFR-β expression in pericytes” value (B16-F0 melanoma [3]; vs control-treated tumors) was “lower expression”, the “RGS5 expression in pericytes” value (B16-F0 melanoma [3]; vs control-treated tumors) was “lower expression” and the “α-SMA expression in pericytes” value (B16-F0 melanoma [3]; vs control-treated tumors) was “higher expression”. The “binding to other members of the galectin family” value [4] was “did not bind”.
